Consider 2 substances from patent US12358960B2, “Selective targeting of ubiquitin- and ubiquitin-like E1-activating enzymes by structurally-stabilized peptides” (Dana-Farber Cancer Institute, Inc., priority 2019, dated 2025).

Holding throughout (assay type): binding
In one experiment the target is His-p53 (Homo sapiens, UniProt P04637). In words: Fluorescence microscopy of Ni-NTA agarose beads, untagged or with His-p53 control. To be noted: FITC-labeled peptide 10 μM.
In another experiment the target is T1, His-UBA1 (Homo sapiens, UniProt P22314).
T1 sequence (P22314 1-1058): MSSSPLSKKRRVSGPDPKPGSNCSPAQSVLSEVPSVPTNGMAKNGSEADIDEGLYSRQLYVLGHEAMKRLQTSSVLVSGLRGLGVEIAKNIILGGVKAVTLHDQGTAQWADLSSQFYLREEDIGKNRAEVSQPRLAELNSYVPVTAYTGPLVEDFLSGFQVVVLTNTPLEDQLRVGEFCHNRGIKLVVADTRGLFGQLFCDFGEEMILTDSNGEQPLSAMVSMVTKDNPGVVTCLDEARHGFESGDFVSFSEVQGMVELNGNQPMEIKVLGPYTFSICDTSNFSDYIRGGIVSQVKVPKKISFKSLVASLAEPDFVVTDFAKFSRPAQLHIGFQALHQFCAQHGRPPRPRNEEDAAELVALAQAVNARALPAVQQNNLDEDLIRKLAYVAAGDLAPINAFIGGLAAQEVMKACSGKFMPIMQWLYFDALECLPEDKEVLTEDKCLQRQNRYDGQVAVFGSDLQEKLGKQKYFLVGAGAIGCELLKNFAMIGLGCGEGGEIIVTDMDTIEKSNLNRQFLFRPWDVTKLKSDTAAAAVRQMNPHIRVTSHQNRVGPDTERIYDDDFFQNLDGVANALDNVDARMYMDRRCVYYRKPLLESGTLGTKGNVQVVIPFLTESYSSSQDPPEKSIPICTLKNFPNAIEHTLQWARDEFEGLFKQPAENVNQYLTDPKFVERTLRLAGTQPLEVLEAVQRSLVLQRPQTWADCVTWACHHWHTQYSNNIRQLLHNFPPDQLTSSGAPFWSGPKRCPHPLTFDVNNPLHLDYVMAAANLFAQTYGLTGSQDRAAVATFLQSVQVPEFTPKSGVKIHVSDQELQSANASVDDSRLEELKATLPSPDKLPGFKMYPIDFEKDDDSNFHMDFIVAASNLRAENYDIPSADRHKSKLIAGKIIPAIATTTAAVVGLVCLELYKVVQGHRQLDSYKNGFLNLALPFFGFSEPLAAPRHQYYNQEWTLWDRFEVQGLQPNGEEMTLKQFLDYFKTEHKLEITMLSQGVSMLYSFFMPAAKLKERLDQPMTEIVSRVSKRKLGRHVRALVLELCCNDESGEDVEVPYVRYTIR
In words: Fluorescence microscopy of Ni-NTA agarose beads with His-UBA1. To be noted: FITC-labeled peptide 10 μM. Here is the method:
Fluorescence Microscopy: His-tagged UBA1 (25 μg) was incubated with Ni-NTA agarose beads (100 μl) (Invitrogen™ R90110) in PBS for 30 min. Beads were then incubated for 30 min with FITC-labeled peptide (10 μM). Beads were plated in […] (10 μl/well) (Corning 384-well High Content Imaging Glass Bottom Microplate) and imaged with an Olympus wide-field epifluorescence microscope, a 63×LCPlanFL NA 0.7 objective, and a CoolSNAP DYNO camera.

Another experiment addresses T2, UBA1 (Homo sapiens, UniProt P22314).
T2 sequence (P22314 1-1058): T1 sequence (P22314 1-1058)
In words: Streptavidin-biotin pull-down with recombinant protein. The conditions noted are these: biotinylated peptide, silver stain. The procedure:
Streptavidin-biotin pull-down assays: For recombinant protein pull-downs, 10 pmol recombinant human UBA1 was incubated with 5 nmol C-terminally biotinylated SAH-UBE2A or DMSO vehicle control in a total volume of 1 mL binding buffer (50 mM NaCl, 20 mM HEPES, pH 7.4, 5 mM DTT) for 1.5 hours at 4° C. 30 μL of pre-equilibrated streptavidin agarose beads were then added and incubated for an additional 1.5 hours at 4° C. The beads were pelleted by centrifugation and washed three times with NP-40 buffer (20 mM HEPES, pH 7.4, 50 mM NaCl, 5 mM DTT, 0.5% [v/v] NP-40) before eluting the protein sample from the beads by heating at 70° C. for 10 min in 3×SDS loading buffer. Samples were subjected to electrophoresis and silver staining (Pierce 24612). […] Proteins were separated by SDS-PAGE gel electrophoresis and detected by western blot against UBE1 (Abcam ab34711). […] Conjugation of ubiquitin to E2 by E1 is monitored by conversion of free E2 (17 kDa) to E2˜ubiquitin conjugate (26 kDa). Quantitation of percent inhibition was calculated from densitometry of silver stain images. Error bars represent ±1 SEM calculated from three independent experiments.

Where [1] appears, read: listed as FITC-labeled SAH-UBE2A-11.

Bridge positions count the residues as written; N and C are the ends. Square brackets hold non-standard residues; d marks the D form. Ends that are not written are not given here. R8 = C=CCCCCCC[C@@](C)(N)C(=O)O; S5 = C=CCCC[C@](C)(N)C(=O)O; Nle = CCCC[C@H](N)C(=O)O

Chain of His-p53 (P04637 whole entry): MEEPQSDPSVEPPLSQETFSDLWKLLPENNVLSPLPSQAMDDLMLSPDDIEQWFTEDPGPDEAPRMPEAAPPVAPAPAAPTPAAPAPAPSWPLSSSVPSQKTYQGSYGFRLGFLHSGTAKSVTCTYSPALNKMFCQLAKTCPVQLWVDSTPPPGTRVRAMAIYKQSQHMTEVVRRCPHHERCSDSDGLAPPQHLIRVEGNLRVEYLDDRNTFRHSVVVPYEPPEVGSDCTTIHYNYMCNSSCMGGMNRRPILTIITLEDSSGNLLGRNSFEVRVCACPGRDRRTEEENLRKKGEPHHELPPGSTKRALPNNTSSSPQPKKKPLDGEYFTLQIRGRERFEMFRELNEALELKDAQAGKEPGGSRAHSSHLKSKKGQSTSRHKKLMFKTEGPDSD

As to “FITC-SAH-UBE2A: FITC conjugated to SEQ ID NO: 132 ([Nle]STP[R8]RRRL[Nle]R[S5]FKRLQ; staple 5-12; not fully specified (C-terminus); also: FITC conjugate, site not settled)”, the “binding of FITC-labeled peptide to untagged beads or His-p53 beads” value was “did not bind nonspecifically to the beads (top row) or to His-p53” with His-p53 and “did not engage untagged beads or beads tagged with an unrelated protein (His-p53)” with His-p53 (setting [1]). Also, the figures for the “binding of FITC-labeled peptide to Ni-NTA beads with His-UBA1” value with His-UBA1 and with His-UBA1 (setting [1]) were “only bound to the beads in the presence of His-UBE1” and “binds specifically to Ni-NTA beads tagged with His-UBA1”, respectively.

For the substance “biotinylated SAH-UBE2A: C-terminally biotinylated SAH-UBE2A (Ac-[Nle]STP[R8]RRRL[Nle]R[S5]FKRLQ-biotin; staple 5-12)”, the “direct binding to recombinant UBA1, streptavidin capture” value with UBA1 is reported as “direct binding of biotinylated SAH-UBE2A to recombinant UBA1”.
